Assay results: patent publication US20230212587A1, “Mutant Hydroxyphenylpyruvate Dioxygenase Polypeptide, Encoding Gene Thereof and Use Therefor” (Beijing Dabeinong Biotechnology Co., Ltd., priority 2019, published 2023)

Columns and labels:
[1] = system: Arabidopsis thaliana T1 plants; test: Topramezone tolerance of transgenic Arabidopsis thaliana T1 plants (pesticide damage grade by bleached leaf area, score, resistance evaluation); type: in vivo; conditions: mutation combination, Table 8
Summary of the method: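 Eighteen days after sowing, wild-type and HPPD-transgenic T1 Arabidopsis receive a topramezone spray at 1×, 2× or 4× field rate (25–100 g ai/ha) or water. Seven days later each plant is graded by its proportion of bleached leaf area.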

rice T1 plants = test: Herbicide tolerance of transgenic rice T1 plants to topramezone; type: in vivo; conditions: topramezone 50 and 100 g ai/ha, 7 DAT, compared to wild-type
Description: The Arabidopsisthaliana T1 plants into which the AsHPPDm-F372A-02 nucleotide sequence was introduced, Arabidopsis thaliana T1 plants into which the AsHPPD-02 nucleotide sequence was introduced and wild-type Arabidopsisthaliana plants (18 days after sowing) were sprayed with topramezone at four different concentrations, i.e., 25 g ai/ha (one-fold field concentration, 1×), 50 g ai/ha (two-fold field concentration, 2×), 100 g ai/ha (four-fold field concentration, 4×) and 0 g ai/ha (water, 0×) to determine the tolerance of Arabidopsisthaliana to the herbicide. The degree of damage caused by the herbicide was measured for each plant according to the proportion of bleached leaf area (the proportion of bleached leaf area=bleached leaf area/total leaf area×100%) 7 days after spraying (7 DAT): the case where there is basically no bleached phenotype is defined as grade 0, the case where the proportion of bleached leaf area is less than 50% is defined as grade 1,the case where the proportion of bleached leaf area is more than 50% is defined as grade 2, and the case where the proportion of bleached leaf area is 100% grade is defined as grade 3.
The rice T1 plants into which the AsHPPDm-F372A-02 nucleotide sequence was introduced, rice T1 plants into which the AsHPPDm-F372A-A110 nucleotide sequence was introduced, rice T1 plants into which the ZmHPPDm-F372A-02 nucleotide sequence was introduced, rice T1 plants into which the PfHPPDm-F372A-02 nucleotide sequence was introduced and wild-type rice plants (V3-V4 at seedling stage) were sprayed with topramezone at two different concentrations respectively, i.e. 50 g ai/ha (2-fold field concentration, 2 ×) and 100 g ai/ha (4-fold field concentration, 4 ×) to detect the herbicide tolerance of rice plants. According to the method in point 6 of Example 1, after 7 days of spraying (7 DAT), the damage degree of each plant by the herbicide was statistically analyzed, and the scoring and resistance evaluation were carried out accordingly. The rice T1 plants into which AsHPPDm-F372A-02 nucleotide sequence was introduced were of two strains in total (S12 and S13), rice T1 plants into which AsHPPDm-F372A-A1 10 nucleotide sequence was introduced were of two strains in total (S14 and S15), rice T1 plants into which ZmHPPDm-F372A-02 nucleotide sequence was introduced were of two strains in total (S16 and S17), rice T1 plants into which PfHPPDm-F372A-02 nucleotide sequence was introduced were of two strains in total (S18 and S19), and the wild-type rice plants were of one strain in total (CK2); and 8 plants were selected from each strain and tested.

B1: AsHPPDm-F372A-A110: Avena sativa HPPD with F372A and deletion of alanine at position 110, SEQ ID NO: 412 (protein)
chain: MPPTPATATGAAAAAVTPEHAARSFPRVVRVNPRSDRFPVLSFHHVELWCADAASAAGRFSFALGAPLAARSDLSTGNSAHASLLLRSGALAFLFTAPYAPPPQEAATAATASIPSFSADAARTFAAAHGLAVRSVGVRVADAAEAFRVSVAGGARPAFAPADLGHGFGLAEVELYGDVVLRFVSYPDETDLPFLPGFERVSSPGAVDYGLTRFDHVVGNVPEMAPVIDYMKGFLGFHEFAEFTAEDVGTTESGLNSVVLANNSEAVLLPLNEPVHGTKRRSQIQTYLEYHGGPGVQHIALASNDVLRTLREMRARTPMGGFEFMAPPQAKYYEGVRRIAGDVLSEEQIKECQELGVLVDRDDQGVLLQIATKPVGDRPTFFLEMIQRIGCMEKDEVGQEYQKGGCGGFGKGNFSELFKSIEDYEKSLEVKQSVVAQKS
modifications: AsHPPDm-F372A-A110 Amino Acid Sequence
[1]; topramezone 25 g ai/ha
  Grade 0 (number of plants): 20
  Grade 1 (number of plants): 0
  Grade 2 (number of plants): 0
  Grade 3 (number of plants): 0
  Resistance Grade: Highly resistant
  score: 0
[1]; topramezone 100 g ai/ha
  Grade 0 (number of plants): 20
  Grade 1 (number of plants): 0
  Grade 2 (number of plants): 0
  Grade 3 (number of plants): 0
  Resistance Grade: Highly resistant
  score: 0
Rice T1 plants
  tolerance to topramezone, in words: higher tolerance
